Assay results reported in patent WO2005095457A2 (dated 2005).
One block for each binder: values may come before it.

Tests used:
[1] = biological target: T1, cynomolgus monkey OSM (cOSM) (cynomolgus monkey, UniProt P13725 26-221 (human entry), limits assumed); assay: gp130 inhibition ELISA and KB cell assay
T1 construct: also called cynomolgus OSM
T1 chain: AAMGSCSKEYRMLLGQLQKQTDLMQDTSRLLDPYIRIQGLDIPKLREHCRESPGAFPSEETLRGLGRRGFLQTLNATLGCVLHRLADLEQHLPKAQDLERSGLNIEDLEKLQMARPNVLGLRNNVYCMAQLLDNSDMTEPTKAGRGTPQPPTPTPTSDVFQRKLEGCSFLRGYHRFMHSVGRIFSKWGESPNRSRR

[2] = biological target: T1, cynomolgus monkey OSM (cOSM); assay: gp130 inhibition ELISA, cynomolgus OSM
[3] = biological target: T1, cynomolgus monkey OSM (cOSM); assay: gp130 inhibition ELISA, purified antibodies
[4] = biological target: T2, human Oncostatin M (hOSM) (human, UniProt P13725 26-221); assay: gp130 ELISA, hOSM
T2 construct: also called human OSM
T2 sequence: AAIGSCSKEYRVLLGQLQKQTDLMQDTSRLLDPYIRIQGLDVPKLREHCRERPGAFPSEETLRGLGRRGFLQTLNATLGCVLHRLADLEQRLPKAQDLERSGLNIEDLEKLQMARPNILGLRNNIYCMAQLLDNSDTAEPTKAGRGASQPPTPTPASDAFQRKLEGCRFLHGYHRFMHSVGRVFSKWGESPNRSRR

[5] = biological target: T3, glycosylated human OSM (hOSM) produced in CHO cells (human) (UniProt P13725); assay: competition ELISA: murine 10D3 titrated against 15E10-B3L2 (150 ng/ml, the competitor) on soluble glycosylated hOSM (50 ng/ml), capture by OM4-11.31, anti-human gamma chain detection
T3 sequence (chain, glycosylated (CHO cell glycosylated)): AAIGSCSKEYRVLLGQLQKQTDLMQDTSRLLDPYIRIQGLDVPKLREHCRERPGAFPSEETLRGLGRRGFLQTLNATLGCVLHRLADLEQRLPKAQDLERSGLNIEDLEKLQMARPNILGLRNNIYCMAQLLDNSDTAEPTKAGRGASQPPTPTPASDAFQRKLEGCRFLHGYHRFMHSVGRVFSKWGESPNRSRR

binding result [1]: binds
B1: 15E10 chimaeric antibody (antibody, human IgG1, V domains shown)
VH: QVQLKQSGPGLVQPSQSLSITCTVSGFSLTNYGVHWVRQSPGKGLEWLGVIWRGGSTDYNAAFMSRLSITKDNSRSQVFFKMNSLQADDTAIYYCAKSPNSNFYWYFDVWGTGTTVTVSS
VL: QIVLTQSPTIMSASPGEKVTMTCSGSSSVSYMYWYQEKPGSSPRLLIEDTSNLASGVPARFSGSGSGTSYSLTISRMEAEDAATYYCQQWSSYPPTFGSGTKLEIK
notes: expressed in CHO; also called chimaeric 15E10; 15E10 chimaera

binding result [2]: binds
B2: 15E10 murine antibody (antibody, mouse IgG2a, V domains shown)
VH: QVQLKQSGPGLVQPSQSLSITCTVSGFSLTNYGVHWVRQSPGKGLEWLGVIWRGGSTDYNAAFMSRLSITKDNSRSQVFFKMNSLQADDTAIYYCAKSPNSNFYWYFDVWGTGTTVTVSS
VL: QIVLTQSPTIMSASPGEKVTMTCSGSSSVSYMYWYQEKPGSSPRLLIEDTSNLASGVPARFSGSGSGTSYSLTISRMEAEDAATYYCQQWSSYPPTFGSGTKLEIK
notes: also called clone 15E10; parent murine 15E10

binding result [3]: binds
B3: humanised 15E10 antibody B3L2 (antibody, human IgG1, kappa, V domains shown)
VH: QVQLVESGGGVVQPGRSLRLSCAASGFSLTNYGVHWVRQAPGKGLEWVAVIWRGGSTDYNAAFMSRFTISKDNSKNTLYLQMNSLRAEDTAVYYCAKSPNSNFYWYFDVWGRGTLVTVSS
VL: EIVLTQSPATLSLSPGERATLSCSGSSSVSYMYWYQQKPGQAPRLLIEDTSNLASGIPARFSGSGSGTDYTLTISNLEPEDFAVYYCQQWSSYPPTFGQGTKLEIKR
notes: Human IgG1 wild type / kappa; purified from CHO; also called B3L2 wt; 15E10-B3L2

IC50 [4]: 0.032 µg/mL
% inhibition of 15E10 at equimolarity (0.15μg/ml) [5]: 62.3%
B4: 10D3 chimaeric antibody (antibody, human IgG1, V domains shown)
VH: EVQLQQSGPELVKPGASVKISCKASGYIFTDYNMDWVKQSHGKKLEWIGDINPNNGGTIDNQKFKDKATLTVDKSSSTAYMELRSLTSEDTAVYYCARGIYYYGSHYFDYWGQGTTLTVSS
VL: QIVLTQSPAIMSASPGEKVTMTCSATSSVSVMHWFQKKSGTSPKRWIYDTSKLASGVPTRFSGSGSGTSYSLTISSMEAEDTATYYCQQWSSNPLTFGSGTKLELK
notes: expressed in CHO; also called chimaeric 10D3; chimeric 10D3
